This is an account of results in paper PMC5159498.

In test [1] the target is CDC42 Q61L (human) (UniProt P60953). The experiment in a line: fluorescence polarisation; GRD1-CT (0-2.5 μM) or GRD2 (0-7.5 μM) titrated to tGppNHp-bound CDC42 Q61L (1 μM); 30 mM Tris/HCl pH 7.5, 150 mM NaCl, 5 mM MgCl2, 3 mM DTT, 25 °C. On the technique in general: Fluorescence polarisation rises when a labelled molecule tumbles more slowly, as on binding a larger partner.

For test [2] the target is unchanged. The experiment in a line: fluorescence polarisation; IQGAP1 variant titrated to mGppNHp-bound RHO protein (1 μM); equilibrium Kd (eKd), quadratic fit; 30 mM Tris/HCl pH 7.5, 150 mM NaCl, 5 mM MgCl2, 3 mM DTT, 25 °C.
The target is the same in test [3]. Briefly: stopped-flow fluorometry; tGppNHp (tamra-GppNHp)-bound CDC42 or CDC42 Q61L (0.2 μM) rapidly mixed with IQGAP1 variant (2-10 μM GRD1-CT for Q61L); Kd = koff/kon; 30 mM Tris-HCl pH 7.5, 10 mM KH2PO4/K2HPO4, 5 mM MgCl2, 3 mM DTT.
For test [4], the target named is CDC42 (aa 1-178) (human) (UniProt P60953). The experiment in a line: fluorescence polarisation; IQGAP1 variant titrated to mGppNHp-bound RHO protein (1 μM); equilibrium Kd (eKd), quadratic fit; 30 mM Tris/HCl pH 7.5, 150 mM NaCl, 5 mM MgCl2, 3 mM DTT, 25 °C.
The next test concerns the target RAC1 (aa 1-179) (human) (UniProt P63000). The description is as above.
Test [5] concerns the target CDC42 (aa 1-178) (human) (UniProt P60953). The experiment in a line: fluorescence polarisation; IQGAP1 variant titrated to mGDP-bound (inactive) RHO protein (1 μM), same conditions as with mGppNHp; 30 mM Tris/HCl pH 7.5, 150 mM NaCl, 5 mM MgCl2, 3 mM DTT, 25 °C.

Chain of IQGAP1 GRD1-CT (aa 863-1657) (P46940 863-1657): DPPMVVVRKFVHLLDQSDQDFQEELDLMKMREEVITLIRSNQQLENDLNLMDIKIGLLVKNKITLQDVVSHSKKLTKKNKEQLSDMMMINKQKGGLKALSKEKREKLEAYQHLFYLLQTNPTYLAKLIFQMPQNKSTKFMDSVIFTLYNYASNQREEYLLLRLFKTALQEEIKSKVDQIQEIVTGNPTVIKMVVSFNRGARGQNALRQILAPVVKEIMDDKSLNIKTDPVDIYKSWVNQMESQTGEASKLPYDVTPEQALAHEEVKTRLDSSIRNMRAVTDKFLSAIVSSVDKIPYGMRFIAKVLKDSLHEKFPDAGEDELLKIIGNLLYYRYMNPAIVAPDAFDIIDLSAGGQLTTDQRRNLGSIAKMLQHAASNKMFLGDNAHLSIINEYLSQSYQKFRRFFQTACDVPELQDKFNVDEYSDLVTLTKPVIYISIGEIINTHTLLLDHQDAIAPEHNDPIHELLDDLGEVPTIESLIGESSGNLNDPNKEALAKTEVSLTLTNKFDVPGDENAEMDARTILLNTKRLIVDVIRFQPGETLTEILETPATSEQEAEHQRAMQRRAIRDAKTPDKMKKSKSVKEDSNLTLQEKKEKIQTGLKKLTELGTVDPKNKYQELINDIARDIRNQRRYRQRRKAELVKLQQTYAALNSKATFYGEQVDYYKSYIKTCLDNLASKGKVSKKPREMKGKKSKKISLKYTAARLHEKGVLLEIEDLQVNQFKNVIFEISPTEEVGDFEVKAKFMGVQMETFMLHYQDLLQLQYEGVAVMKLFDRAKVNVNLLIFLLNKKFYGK
Chain of IQGAP1 GRD2 (aa 962-1345) (P46940 962-1345): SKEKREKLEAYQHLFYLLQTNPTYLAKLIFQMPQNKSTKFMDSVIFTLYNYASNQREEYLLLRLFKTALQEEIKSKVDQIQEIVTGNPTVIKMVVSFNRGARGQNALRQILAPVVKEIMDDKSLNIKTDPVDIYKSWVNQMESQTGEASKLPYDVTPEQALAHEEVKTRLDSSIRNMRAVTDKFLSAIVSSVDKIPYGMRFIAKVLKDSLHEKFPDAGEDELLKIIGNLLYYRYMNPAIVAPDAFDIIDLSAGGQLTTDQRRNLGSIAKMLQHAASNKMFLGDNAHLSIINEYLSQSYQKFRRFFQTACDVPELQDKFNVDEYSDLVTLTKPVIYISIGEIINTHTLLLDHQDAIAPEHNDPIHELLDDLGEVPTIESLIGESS
Chain of CDC42 (aa 1-178) (human) (P60953 1-178): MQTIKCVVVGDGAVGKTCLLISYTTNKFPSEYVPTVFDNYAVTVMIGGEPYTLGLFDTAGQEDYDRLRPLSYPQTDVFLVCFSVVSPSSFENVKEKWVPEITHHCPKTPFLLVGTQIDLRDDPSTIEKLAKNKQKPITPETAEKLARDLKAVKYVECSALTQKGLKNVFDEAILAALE

As for “IQGAP1 GRD1-CT (aa 863-1657) (from UniProt P46940 863-1657) (domain or fragment)”, the Kd (as a rule, a measure of binding affinity in units of concentration) with CDC42 Q61L (human) [1] was determined as 520 nM; with CDC42 Q61L (human) [2] it was 830 nM; with CDC42 Q61L (human) [3] it was 50 nM.
Take “IQGAP1 GRD2 (aa 962-1345) (from UniProt P46940 962-1345) (domain or fragment)”: the Kd with CDC42 Q61L (human) [1] worked out at 1130 nM; in the test with CDC42 (aa 1-178) (human) [4] it was 30200 nM; with CDC42 Q61L (human) [2] it was 2370 nM; with RAC1 (aa 1-179) (human) it was 81500 nM; in the test with CDC42 (aa 1-178) (human) [5], 185000 nM.
